Consider two molecules from US20250388667A1 (BIO THERA SOLUTIONS, published 2025).

One assay has as its target T1, Nectin-4 on T-47D cells (human, UniProt Q96NY8 32-510).
T1 construct: whole, on cells; endogenous expression; also called T-47D cells positive for Nectin-4 expression
T1 sequence (looked up): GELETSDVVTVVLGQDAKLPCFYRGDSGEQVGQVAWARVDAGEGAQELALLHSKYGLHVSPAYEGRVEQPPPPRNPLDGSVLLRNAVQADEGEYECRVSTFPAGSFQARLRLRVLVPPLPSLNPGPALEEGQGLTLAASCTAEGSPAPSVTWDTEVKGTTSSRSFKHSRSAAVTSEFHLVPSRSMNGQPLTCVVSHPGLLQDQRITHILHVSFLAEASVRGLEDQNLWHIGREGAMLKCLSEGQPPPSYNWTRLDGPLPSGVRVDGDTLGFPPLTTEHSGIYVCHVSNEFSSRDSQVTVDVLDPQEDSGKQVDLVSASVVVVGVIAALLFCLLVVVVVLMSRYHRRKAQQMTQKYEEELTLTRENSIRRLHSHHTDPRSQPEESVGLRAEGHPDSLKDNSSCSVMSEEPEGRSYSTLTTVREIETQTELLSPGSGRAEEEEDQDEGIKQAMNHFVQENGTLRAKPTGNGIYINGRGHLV
The experiment in a line: FACS on T-47D cells, 10 µg/mL on ice, 0 h point of the endocytosis assay. Here is the method: In this assay, the relative amount of antibodies remaining on the cell surface after co-incubation at 37° C. for a certain period of time was detected by FACS to reflect the endocytosis efficiency. The procedures are briefly described as follows: T-47D cells (human ductal breast cancer cells, derived from the Cell Bank of Chinese Academy of Sciences, Cat. No. TCHu 87); the antibodies were adjusted to 10 μg/mL and co-incubated with the cells on ice for 1 h; the cells were washed 3 times with pre-cooled PBS, and then placed at 37° C. and incubated for 0 h, 2 h and 4 h; 0.2% N₃Na was added to stop the endocytosis reaction; the cells were washed with PBS thrice, followed by the addition of the PE-labeled anti-human Fc secondary antibody (Invitrogen 12-4998-82); the cells were incubated at 4° C. for 30 min; the red fluorescence signal was detected on a flow cytometer.

The target of assay [1] is T2, hNectin-1 (ACRO, PV1-H5223) (human, UniProt Q15223 31-334).
T2 construct: bought
T2 sequence (looked up): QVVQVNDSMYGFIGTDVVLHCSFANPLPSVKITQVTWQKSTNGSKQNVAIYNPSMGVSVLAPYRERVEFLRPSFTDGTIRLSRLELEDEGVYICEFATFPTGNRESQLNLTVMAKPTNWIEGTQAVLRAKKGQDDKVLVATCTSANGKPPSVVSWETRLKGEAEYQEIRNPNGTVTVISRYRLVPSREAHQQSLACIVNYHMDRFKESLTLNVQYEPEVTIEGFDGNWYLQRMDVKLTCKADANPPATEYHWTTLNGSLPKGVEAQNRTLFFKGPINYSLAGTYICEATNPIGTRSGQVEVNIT
The experiment in a line: ELISA, antigen coated, HRP-labeled anti-human-Kappa secondary antibody. Here is the method: (§1) The binding activity of intact antibodies was detected by ELISA. The procedures are briefly described as follows: the hNectin-4-His antigen protein of Example 1 was immobilized at a concentration of 1 μg/mL on a plate; the plate was blocked with skimmed milk powder overnight, and then, serially diluted antibodies of interest were added for co-incubation (antibodies in Table 9 were serially 2-fold diluted from 2 μg/mL; antibodies in Tables 10 and 11 were serially 3-fold diluted from 10 μg/mL) at room temperature for 2 h; then an HRP-labeled anti-human-kappa (Sigma, A7164) secondary antibody was added for co-incubation for 1 h, followed by the addition of TMB (Huzhou InnoReagents, TMB-S-001) for chromogenic reaction, and the reaction was stopped with 0.1 M H₂SO₄; after the absorbance at OD450 was read on a microplate reader, the binding EC₅₀ value for each antibody was calculated by four-parameter fitting, and the binding activities of the antibodies were compared.
(§2) In this assay, the binding of different antibodies to human Nectin-4 homologous proteins hNectin-1 (ACRO, PV1-H5223), hNectin-2 (ACRO, PV2-H52E2), hNectin-3 (ACRO, PV3-H52E4), and hNectin-4-His was detected by ELISA to determine the specificity of the antibodies. For the methodology and procedures, see Example 4. Antigens of interest ([…]) were immobilized; after blocking, serially diluted antibodies (2-fold serially diluted from […]) were added, and HRP-labeled anti-human-Kappa secondary antibody was added for chromogenic reaction.

Assay [2] addresses T3, hNectin-2 (ACRO, PV2-H52E2) (human, UniProt Q92692 32-360).
T3 construct: bought
T3 sequence (looked up): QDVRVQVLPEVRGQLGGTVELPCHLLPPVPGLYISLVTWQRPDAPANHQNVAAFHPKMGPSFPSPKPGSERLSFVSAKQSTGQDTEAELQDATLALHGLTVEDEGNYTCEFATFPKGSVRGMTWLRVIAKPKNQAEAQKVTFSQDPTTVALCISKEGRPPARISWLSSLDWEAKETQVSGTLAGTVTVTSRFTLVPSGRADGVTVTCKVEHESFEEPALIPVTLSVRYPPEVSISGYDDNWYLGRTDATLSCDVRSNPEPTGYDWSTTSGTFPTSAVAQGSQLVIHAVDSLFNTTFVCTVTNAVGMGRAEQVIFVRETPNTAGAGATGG
The assay is described as above. Here is the method: as §1, §2

B1: antibody 10F4 (antibody, human IgG1, kappa, V domains shown)
VH: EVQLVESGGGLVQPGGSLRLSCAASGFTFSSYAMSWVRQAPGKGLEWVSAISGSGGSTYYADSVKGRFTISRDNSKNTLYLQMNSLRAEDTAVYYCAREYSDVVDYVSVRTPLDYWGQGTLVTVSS
VL: DIQMTQSPSSLSASVGDRVTITCRASQGISSYLAWYQQKPGKAPKLLIYAASSLQSGVPSRFSGSGSGTDFTLTISSLQPEDFATYYCQQHYTTPPTFGQGTKVEIKR
notes: intact antibody
For B1, the “MFI (0 h)” value with Nectin-4 on T-47D cells stood at 104000 MFI. The binding result in assay [1] and in assay [2] was “no binding (tested: 2000 ng/mL)” throughout.

B2: antibody 1G8 (antibody, human IgG1, kappa, V domains shown)
VH: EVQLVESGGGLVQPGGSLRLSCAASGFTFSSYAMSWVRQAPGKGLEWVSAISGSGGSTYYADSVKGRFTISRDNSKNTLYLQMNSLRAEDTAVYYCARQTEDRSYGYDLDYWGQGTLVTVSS
VL: B1 VL
notes: intact antibody
On to B2, for which the “MFI (0 h)” value in the assay with Nectin-4 on T-47D cells came to 105000 MFI. For the same molecule, the binding result in assay [1] and in assay [2] was “no binding (tested: 2000 ng/mL)” throughout.
